Assays:
[1] = biological target: DR5-41BB fusion protein (SEQ ID NO: 4); assay: flow cytometry, primary expanded NK cells electroporated with DR5-41BB mRNA; signal is endogenous DR5 plus DR5-41BB
[2] = biological target: DR5-41BB fusion protein (SEQ ID NO: 4); assay: flow cytometry, Jurkat T cells transfected with DR5-41BB; signal is endogenous DR5 plus DR5-41BB
[3] = biological target: TRAIL death receptor 5 (DR5) (UniProt O14763); assay: flow cytometry, mock electroporated Jurkat T cells (endogenous DR5)
[4] = biological target: DR5-41BB fusion protein (SEQ ID NO: 4); assay: flow cytometry, Jurkat T cells transfected with DR5-41BB; DR5-41BB specific signal after mock is set to MFI=0
[5] = biological target: DR5-41BB fusion protein (SEQ ID NO: 4); assay: flow cytometry, primary expanded NK cells electroporated with DR5-41BB mRNA; 608 minus 208
[6] = biological target: TRAIL death receptor 5 (DR5) (UniProt O14763); assay: flow cytometry, Jurkat T cells stained with anti-DR5 (FMO control 1.29%)
[7] = biological target: TRAIL death receptor 5 (DR5) (UniProt O14763); assay: flow cytometry, mock electroporated primary expanded NK cells (endogenous DR5)
[8] = biological target: DR5-41BB fusion protein (SEQ ID NO: 4); assay: cell-based or functional assay

Sequence of DR5-41BB fusion protein (SEQ ID NO: 4) (chain, as listed by the source limits assumed): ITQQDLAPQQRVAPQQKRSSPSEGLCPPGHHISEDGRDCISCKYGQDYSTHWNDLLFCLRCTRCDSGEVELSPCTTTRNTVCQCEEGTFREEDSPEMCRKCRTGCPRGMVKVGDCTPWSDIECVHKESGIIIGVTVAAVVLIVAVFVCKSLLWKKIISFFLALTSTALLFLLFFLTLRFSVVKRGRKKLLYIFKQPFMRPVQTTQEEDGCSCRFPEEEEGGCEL

Row | mean MFI [1] [MFI] | mean MFI [2] [MFI] | mean MFI (mock background subtracted) [4] [MFI] | mean MFI (mock background subtracted) [5] [MFI] | Substance | mean MFI [3] [MFI] | percent of cells stained [6] [%] | mean MFI [7] [MFI] | cell death in T cells (Propidium Iodide, flow cytometry, 16 hours, 100 ng/ml TRAIL) [8] [%]
1 | 608 | 2070 | 1380 | 400 | anti-DR5 antibody (Clone: DJR2-4, Source: Biolegend, Cat: 307406) | 698 | 86.8 | 208 | –
2 | – | – | – | – | soluble TRAIL ligand (from UniProt P50591 114-281) | – | – | – | 15
